From the supplement of paper PMC12667976

B1: library; numbered along this chain (parent)
chain: MATDAALRRLLRLHRTEIAVAVDSAFPLLHALADHDVVPEDKFQETLHLKEKEGCPQAFHALLSWLLTQDSTAILDFWRVLFKDYNLERYGRLQPILDSFPKDVDLSQPRKGRKPPAVPKALVPPPRLPTKRKASEEARAAAPAALTPRGTASPGSQLKAKPPKKPESSAEQQRLPLGNGIQTMSASVQRAVAMSSGDVPGARGAVEGILIQQVFESGGSKKCIQVGGEFYTPSKFEDSGSGKNKARSSSGPKPLVRAKGAQGAAPGGGEARLGQQGSVPAPLALPSDPQLHQKNEDECAVCRDGGELICCDGCPRAFHLACLSPPLREIPSGTWRCSSCLQATVQEVQPRAEEPRPQEPPVETPLPPGLRSAGEEVRGPPGEPLAGMDTTLVYKHLPAPPSAAPLPGLDSSALHPLLCVGPEGQQNLAPGARCGVCGDGTDVLRCTHCAAAFHWRCHFPAGTSRPGTGLRCRSCSGDVTPAPVEGVLAPSPARLAPGPAKDDTASHEPALHRDDLESLLSEHTFDGILQWAIQSMARPAAPFPS

Variants of: B1
Experiment: AIRE transcriptional activation functional score (insulin promoter-GFP; nonsense median 0, synonymous median 1) (normalised score); higher = higher AIRE activity (more reporter activation)
Settings: with insulin promoter-GFP reporter in HEK293
Protocol: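 Deep mutational scan of full-length human AIRE (codon-optimized cDNA, DT-POPCode NNN libraries over three regions) integrated at a Bxb1 landing pad in HEK293 cells carrying an insulin core promoter-GFP reporter at a Flp-In site. Cells were sorted for the top 10% GFP about 14 days after transfection. Variant frequency log-ratios (select vs non-select, TileSeq) were rescaled so that the nonsense median is 0 and the synonymous median is 1, then averaged over biological replicates.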

AIRE transcriptional activation functional score of substitutions, site by site:
C223: M 0.937; G 0.803; R 0.797; P 0.562; K 0.604; E 0.793; Q 0.474; H 0.784; F 0.324; A 0.737; I 0.0416; T 1.15; D 0.503; V 0.923; N 0.407; Y 0.577; L 0.844; S 0.477; W -0.0978
G228: Q -1.12; S 0.591; H -2; C 0.71; I -0.341; E 0.668; R 1.26; P 0.904; T 1.57; K 0.799; D 1.05; Y 0.381; L -1.11; N 1.51; V 0.421; W -0.356; A 0.509; F 0.331
E216: V 0.252; I -1.75; Q 0.964; G 1.09; R -0.537; N 1.75; D 0.741; K 1.2; C 0.558; L 1.42; A 0.655; W 0.395; S 1.33; H 0.489
K222: P 0.845; G 0.393; W -0.0951; C -0.312; M -0.00949; A 0.955; I 0.0162; E 0.916; Y -1.15; V 0.137; N 0.679; T 0.149; D 0.771; L 0.0335; F -0.315; R 1.05; Q 1.11; S 0.847; H 0.644
S220: L 1.04; I 0.449; R 1.06; D 0.488; M 1.16; G 0.764; V 0.743; C 1.21; E 1.14; Q -1.55; P -0.127; T 0.905; Y -0.203; W -1.37; A 0.262; F 0.305
I224: G 0.296; S 0.599; M 1.07; R 0.498; K 0.822; T 0.559; N 0.402; L 0.689; A 0.495; C 0.709; H 0.512; Q 0.197; E 1; Y 0.84; V 0.58; W 1.11; P 0.419; F 0.959; D 0.864
F230: W 0.97; S 0.473; R 0.603; K 0.376; M 0.801; E 0.377; P 0.293; Y 0.502; H 0.48; V 0.617; A 0.596; L 0.774; C 0.611; T 0.761; N 0.425; G 0.617; D 0.723; I 0.507; Q 0.665
G218: K 0.888; Y 0.677; L 1.01; E -0.051; F 0.259; A 1.02; P 0.651; M 1.01; R 1.13; C 0.887; H 1.03; W -0.332; Q -0.344; N 0.111; T 1.11; D 0.885; V 1.1; S 0.817; I 1.14
Y231: D 0.734; I 0.701; L 0.803; C 0.601; F 1.05; T 0.493; E 0.639; R 0.669; N 0.775; V 0.771; M 0.624; G 0.475; H 0.724; S 0.49; W 1.05; Q 0.625; K 0.204; P 0.54; A 0.676
Q225: P 0.572; D 0.269; H 0.951; W 0.582; Y -0.259; V -0.115; S 0.993; I 0.248; G 0.56; R 0.916; M -0.00432; F -0.00208; T 0.688; K 1.23; L -0.23; A 0.99; C -0.424; E 1.13; N 0.762
V226: A 0.677; M 0.67; S 0.403; H 0.579; P 1.09; Y 0.994; R 0.531; F 0.889; T 0.799; Q 0.554; N -0.139; C 0.347; I 0.848; W 1.21; L 1.08; D 0.724; G 0.814; K 0.148; E 0.0129
E229: C 0.0314; M 0.122; N 0.433; I 0.102; V 0.158; K 0.571; S 0.662; T -0.101; L 0.0432; D 0.886; A -0.0287; F 0.704; Y -0.363; H 0.361; Q 1.13; W -0.162; G 1.15; R 0.148; P 0.679
Q213: R 0.637; S 0.639; N 0.805; Y 1.23; V -0.393; W -1.06; P 0.531; T 0.965
G227: Q 1.02; T -0.68; R 0.425; S 0.225; I -0.209; V 0.378; N 0.587; E 0.368; C 0.85; W 0.742; K 0.245; F -0.195; P 0.459; A 0.503; M -1.01; H 0.263; L 0.445; Y 0.111
G219: D 0.836; N 0.637; F 0.625; R 0.858; S 0.761; H 0.761; E 0.654; C 1.5; I 1.35; L 1.14; Y 1.14; W 0.981; V 1.14; T 1.01; A 1.13; M 0.958; P 0.556; Q 0.0466
V214: F 1.01; P 0.238; Y 1.25; C 1.01; A 0.717; E 0.383; L 0.413; G 0.556; S 0.447; R 0.66; I 0.735; W 0.402; M 0.284; H 0.137
F215: A 0.568; V 0.289; E 0.601; T -0.146; C 0.382; R 0.351; M 0.136; S 0.474; P 0.715; D 0.909; I 0.64; K -0.187; G 0.391; H 0.814; Y 0.54; L 0.751; W 0.878
K221: R 0.95; G 0.945; S 0.464; M 1.02; E 1.1; V 0.663; A -0.576; H 0.705; Y 0.0318; Q 0.621; C 0.921; W 0.337; I -0.82; F -0.0481; P 0.766; L 0.328; D 0.706; N 0.995
S217: D 1.57; H 1.07; C 1.16; P 0.572; T 0.908; V 0.98; N 0.895; K 0.417; Y 0.669; W 0.119; E 0.8; I 0.549; M 0.709; Q 0.502; R 0.942; L 0.613; G 1.1; A 0.4; F 0.411
T232: C 0.594; A 0.926; D 1.19
